Data from patent US20060057104A1, “Methods for stimulating tlr irf3 pathways for inducing anti-microbial, anti-inflammatory and anticancer responses” (THE Regents of the University of California Office of the …, priority 2002, published 2006).

B1: CD40L (protein, UniProt P29965 113-261, looked up)
CD40 ligand, soluble form: MQKGDQNPQIAAHVISEASSKTTSVLQWAEKGYYTMSNNLVTLENGKQLTVKRQGLYYIYAQVTFCSNREASSQAPFIASLCLKSPGRFERILLRAANTHSSAKPCGQQSIHLGGVFELQPGASVFVNVTDPSQVSHGTGFTSFGLLKL
B2: recombinant IFN-β: murine rIFN-β (R&D Systems) (protein, UniProt P01575 22-182, looked up)
Interferon beta: INYKQLQLQERTNIRKCQELLEQLNGKINLTYRADFKIPMEMTEKMQKSYTAFAIQEMLQNVFLVFRNNFSSTGWNETIVVRLLDELHQQTVFLKTVLEEKQEERLTWEMSSTALHLKSYYWRVQRYLKLMKYNSYAWMVVRAEIFRNFLIIRRLTRNFQN

Key:
Primary murine B cells = test: Microarray analysis of primary murine B cells stimulated with LPS or CD40L; type: cell-based; details: LPS 20 μg/mL, soluble CD8/CD40L chimera 300 ng/mL
Method: (A) Primary murine B cells were stimulated with LPS (20 μg/mL) or a soluble CD8/CD40L chimera (300 ng/mL) and RNA was collected at indicated time points and used to conduct microarray analysis. […] Expression changes: Red—Induced, Green—Repressed, Black—No Change. Selected time points were hybridized to microarrays in duplicate to ensure reproducibility.
B cell isolation, target preparation, and hybridization using Affymetrix Mu6500 microarrays were performed as described previously (Dadgostar, H., Zarnegar, B., Hoffman, A., Qin, X.-F., Truong, U., Rao, G., Baltimore, D., and Cheng, G. (2002), Proc. Natl. Acad. Sci. USA 99, 1497-1502). Differential expression data was analyzed by Affymetrix Microarray Suite 4.0 software. Average difference change values were then normalized and the genes were clustered by the uncentered correlation average linkage hierarchical clustering algorithm using Cluster. Data was then visualized as a dendogram using Treeview software (www.rana.Ibl.gov/EisenSoftware.htm).
We have conducted a series of microarray experiments to determine gene expression patterns in murine B cells in response to activating stimuli such as LPS and CD40L. […] Genes were hierarchically clustered using average difference change values derived by comparing control samples (media 4h) with samples from cells treated with indicated stimulus.

BMMs = test: Quantitative real-time PCR gene expression in BMMs, wild-type and IFNAR deficient (Example 2); type: cell-based, murine; details: rIFN-β 10, 100, 1000 units
Method: Murine BMMs were stimulated with poly(I:C) (10 μg/ml) or lipid A (1 ng/ml) for the indicated times. Total RiNA was isolated and converted to cDNA for quantitative real-time PCR analysis using primers specific for IFN-β, IFI-204, IP10, IκBα, or L32. Experiments were repeated three times, and the data are presented in relative expression units on a log scale, as described in Example 2, infra.
Primary macrophage cells derived from bone marrow cells were stimulated with poly I:C (1 μg/ml) or lipid A (1 ng/ml) for the indicated times, as described in Example 2, infra.
(B) TLR3 and TLR4 mRNA levels were also assessed in cells deficient in IFNAR, and cells stimulated with rIFN-β (10, 100, and 1000 U). Experiments were repeated at least two separate times, and data are presented in relative expression units. L32 was used to normalize all samples.
Both wild-type cells and cells deficient in IFNAR were stimulated with poly I:C (1 μg/ml) or lipid A (1 ng/ml) for either 1 or 4 h. IFN-β, IP10, IFI-204, ICAM1, and L32 mRNA levels were assessed. Data are representative of three independent experiments and presented in relative expression units, as described in Example 2, infra.
Murine bone marrow-derived macrophages (BMMs) were differentiated from marrow as previously described (Doyle, S. E., S. A. Vaidya, R. O'Connell, H. Dadgostar, P. W. Dempsey, T.-T. Wu, G. Rao, R. Sun, M. E. Haberland, R. L. Modlin, and G. Cheng. 2002. IRF3 mediates a TLR3/TLR4-specific antiviral gene program. Immunity 17:251). A129 (IFNAR-1^−/−) (Muller, U., U. Steinhoff, L. F. L. Reis, S. Hemmi, J. Pavlovic, R. M. Zinkernagel, and M. Aguet. 1994. Functional role of type I and type II interferons in antiviral defense. Science 264:1918) and B6129SF2/J wild type control mice were obtained from B&K Universal Ltd. and Jackson Laboratories, respectively. C57/B6 mice were used for all experiments not involving the A129 mice (Jackson Laboratories). Specific TLR activation was achieved using F-583 (Rd mutant) E. coli lipid A for TLR4 (Sigma), CpG oligonucleotides for TLR9 (Invitrogen) and poly I:C for TLR3 (Pharmacia). For experiments employing the TIRAP/MAL inhibitory peptide (CN Biosciences), cells were pretreated for 1 hour with 20 μM peptide or DMSO alone. Cells were then stimulated with PAMPs in the presence of the inhibitory peptide. For experiments using murine rIFN-β (R&D Systems), wild-type macrophage cells were stimulated with 10, 100, or 1000 units. Viral infection and harvest was performed using MHV68 at an M.O.I. of 5 as previously described (Doyle, S. E., S. A. Vaidya, R. O'Connell, H. Dadgostar, P. W. Dempsey, T.-T. Wu, G. Rao, R. Sun, M. E. Haberland, R. L. Modlin, and G. Cheng. 2002. IRF3 mediates a TLR3/TLR4-specific antiviral gene program. Immunity 17:251).
RNA was isolated by standard guanidium isothiocyanate methods. cDNA template for quantitative realtime PCR analysis was then synthesized and PCR was performed using the iCycler thermocycler (Bio-Rad) as previously described (Doyle, S. E., S. A. Vaidya, R. O'Connell, H. Dadgostar, P. W. Dempsey, T.-T. Wu, G. Rao, R. Sun, M. E. Haberland, R. L. Modlin, and G. Cheng. 2002. IRF3 mediates a TLR3/TLR4-specific antiviral gene program. Immunity 17:251). IFN-βIP10, IκBα and IFI-204 primers were the same as those previously described (Doyle, S. E., S. A. Vaidya, R. O'Connell, H. Dadgostar, P. W. Dempsey, T.-T. Wu, G. Rao, R. Sun, M. E. Haberland, R. L. Modlin, and G. Cheng. 2002. IRF3 mediates a TLR3/TLR4-specific antiviral gene program. Immunity 17:251). For other genes, the following primers were used: […]

| Molecule | upregulation of genes previously characterized as interferon-responsive (Primary murine B cells) | TLR4 mRNA levels (BMMs; wild type cells) | TLR3 mRNA (BMMs; wild-type primary macrophages) |
| --- | --- | --- | --- |
| B1 | not | – | – |
| B2 | – | relatively unaltered | dose dependent upregulation |
